Data taken from US20250092133A1 (Amgen, published 2025).
Where a chain is given by its changes, count along the chain named.

Legend:
[1] = target: T1, Hu CDH3 Dom2 mu (aa 216-327), human/mouse chimeric CDH3 on CHO cells (chimeric hu/mu); assay: flow cytometry, transfected CHO cells; crude undiluted periplasmic scFv extract; anti-FLAG M2 + anti-mouse IgG Fcγ-PE; control PBS/2% FCS
T1 chain: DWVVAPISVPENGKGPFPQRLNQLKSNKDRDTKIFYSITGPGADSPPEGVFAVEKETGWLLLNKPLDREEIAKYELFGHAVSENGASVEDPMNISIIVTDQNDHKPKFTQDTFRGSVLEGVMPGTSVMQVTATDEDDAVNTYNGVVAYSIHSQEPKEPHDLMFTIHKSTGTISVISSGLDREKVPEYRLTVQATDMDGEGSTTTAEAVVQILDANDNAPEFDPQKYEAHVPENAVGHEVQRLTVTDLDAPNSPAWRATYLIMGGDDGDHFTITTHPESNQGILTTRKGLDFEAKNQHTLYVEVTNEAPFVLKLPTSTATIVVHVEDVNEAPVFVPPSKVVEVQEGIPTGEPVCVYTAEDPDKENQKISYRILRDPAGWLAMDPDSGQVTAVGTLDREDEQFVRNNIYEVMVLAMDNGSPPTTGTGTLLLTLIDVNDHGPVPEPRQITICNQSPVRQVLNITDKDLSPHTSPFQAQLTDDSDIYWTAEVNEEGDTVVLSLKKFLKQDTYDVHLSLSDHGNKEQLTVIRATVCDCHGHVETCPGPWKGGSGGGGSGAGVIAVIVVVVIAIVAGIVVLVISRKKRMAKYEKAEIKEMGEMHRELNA
Description: (§1) Cells transfected with human or murine CDH3, or with the chimeric human/mouse CDH3 molecules (see Example 1) were stained with crude, undiluted periplasmic extract containing scFv binding to human/macaque CDH3. […] As negative control, cells were incubated with PBS/2% FCS instead of the periplasmic extract. The samples were measured by flow cytometry.

[2] = target: Hu CDH3 Dom3B mu (aa 364-403), human/mouse chimeric CDH3 on CHO cells (chimeric hu/mu, UniProt P22223 108-681 (human entry)); assay: as above
Description: as §1

[3] = target: T2, human CDH3 (P-cadherin) on cells (human, UniProt P22223 108-829); assay: as above
T2 construct: The entry includes signal peptide and pro-peptide; extracellular domain D1 starts at aa 108; also called hu CDH3; hu CDH-3
Description: as §1

[4] = target: T3, Hu CDH3 Dom3C mu (aa 404-440), human/mouse chimeric CDH3 on CHO cells (chimeric hu/mu, UniProt P22223 108-681 (human entry)); assay: flow cytometry, transfected CHO cells; crude periplasmic scFv extract; anti-FLAG M2 + anti-mouse IgG Fcγ-PE
Description: as §1

[5] = target: Hu CDH3 Dom3A mu (aa 328-363), human/mouse chimeric CDH3 on CHO cells (chimeric hu/mu, UniProt P22223 108-681 (human entry)); assay: as above
Description: as §1

[6] = target: T4, murine CDH3 on cells (mouse, UniProt P10287 100-822); assay: as above
T4 construct: negative control; also called mouse CDH3
T4 sequence: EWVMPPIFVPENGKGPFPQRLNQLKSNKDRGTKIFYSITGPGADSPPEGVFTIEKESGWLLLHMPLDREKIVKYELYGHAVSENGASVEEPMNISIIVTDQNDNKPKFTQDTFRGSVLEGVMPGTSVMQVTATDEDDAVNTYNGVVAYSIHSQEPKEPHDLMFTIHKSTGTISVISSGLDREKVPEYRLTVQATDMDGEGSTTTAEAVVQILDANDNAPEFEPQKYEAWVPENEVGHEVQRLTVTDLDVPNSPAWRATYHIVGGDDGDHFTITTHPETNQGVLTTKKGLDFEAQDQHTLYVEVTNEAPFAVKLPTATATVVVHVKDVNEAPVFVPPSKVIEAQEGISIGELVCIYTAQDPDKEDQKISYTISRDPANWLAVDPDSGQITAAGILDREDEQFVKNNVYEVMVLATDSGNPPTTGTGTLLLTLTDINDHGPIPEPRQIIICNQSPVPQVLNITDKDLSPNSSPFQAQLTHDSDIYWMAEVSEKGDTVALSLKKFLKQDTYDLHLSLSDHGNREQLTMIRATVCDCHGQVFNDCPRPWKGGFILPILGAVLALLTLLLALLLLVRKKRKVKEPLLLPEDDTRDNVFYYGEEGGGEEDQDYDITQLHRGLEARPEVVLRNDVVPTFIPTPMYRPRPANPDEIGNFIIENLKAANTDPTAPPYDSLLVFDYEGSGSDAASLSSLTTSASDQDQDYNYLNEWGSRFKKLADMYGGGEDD
Description: as §1

[7] = target: T5, Hu CDH3 Dom3 mu (aa 328-440), human/mouse chimeric CDH3 on CHO cells (chimeric hu/mu); assay: as above
Description: as §1

[8] = target: T3, Hu CDH3 Dom3C mu (aa 404-440), …; assay: flow cytometry, transfected CHO cells; crude undiluted periplasmic scFv extract; anti-FLAG M2 + anti-mouse IgG Fcγ-PE; control PBS/2% FCS
Description: as §1

[9] = target: T6, Hu CDH3 Dom1C mu (aa 180-215), human/mouse chimeric CDH3 on CHO cells (chimeric hu/mu, UniProt P22223 108-681 (human entry)); assay: as above
T6 chain: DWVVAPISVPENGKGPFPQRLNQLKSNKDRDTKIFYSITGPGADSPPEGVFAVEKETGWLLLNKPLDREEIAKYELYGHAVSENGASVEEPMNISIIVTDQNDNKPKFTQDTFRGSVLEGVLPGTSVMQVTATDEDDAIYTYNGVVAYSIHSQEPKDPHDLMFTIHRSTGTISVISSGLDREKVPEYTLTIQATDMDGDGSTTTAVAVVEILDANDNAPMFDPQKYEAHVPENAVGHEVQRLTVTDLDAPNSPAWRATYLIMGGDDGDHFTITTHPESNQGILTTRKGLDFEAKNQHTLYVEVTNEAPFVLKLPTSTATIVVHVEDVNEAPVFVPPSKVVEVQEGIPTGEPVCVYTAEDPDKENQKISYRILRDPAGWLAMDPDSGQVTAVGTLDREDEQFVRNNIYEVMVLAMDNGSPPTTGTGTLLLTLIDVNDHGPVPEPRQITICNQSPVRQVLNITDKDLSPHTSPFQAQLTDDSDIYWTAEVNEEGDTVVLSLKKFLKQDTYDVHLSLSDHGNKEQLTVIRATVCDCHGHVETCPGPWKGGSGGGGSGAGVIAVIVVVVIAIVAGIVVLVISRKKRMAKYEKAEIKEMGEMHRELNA
Description: as §1

[10] = target: T7, Hu CDH3 Dom1B mu (aa 144-179), human/mouse chimeric CDH3 on CHO cells (chimeric hu/mu, UniProt P22223 108-681 (human entry)); assay: flow cytometry, transfected CHO cells; crude periplasmic scFv extract; anti-FLAG M2 + anti-mouse IgG Fcγ-PE
T7 chain: T6 chain with A52T, V53I, T57S, N63H, K64M, E70K, A72V, Y77F, E90D, N104H
Description: as §1

[11] = target: T5, Hu CDH3 Dom3 mu (aa 328-440), …; assay: flow cytometry, transfected CHO cells; crude undiluted periplasmic scFv extract; anti-FLAG M2 + anti-mouse IgG Fcγ-PE; control PBS/2% FCS
Description: as §1

B1: CDH3-32 scFv (scFv)
scFv: EVQLVEQPGAELVRPGTSVKLSCKASGYTFTSYWMHWVKQRPGQGLEWIGVIDTSDSYTIYNQKFKGKATLTVDTSSSTAYMQLSSLTSEDSSVYFCARSGPGYFDVWGQGTTVTVSSGGGGSGGGGSGGGGSELQMTQSPASLSASVGETVTITCRASENIYSYLAWYQQKQGKSPQLLVYNAKTLAEGVPSRFSGSGSGTQFSLKINSLQPEDFGSYYCQHHYGTPYTFGGGTKLEIK
B1: binds [1]; binds [2]; binds [3]. B1: no binding [4]; no binding [5]; no binding [6]. B1: no binding [7].

B2: CDH3-33 scFv (scFv)
scFv: EVQLVEQPGAELVRPGTSVKLSCKASGYTFTSYWMHWVKQRPGQGLEWIGVIDTSDSYTIYNQKFKGKATLTVDTSSSTAYMQLSSLTSGDSSVYFCARSGPGYFDVWGQGTTVTVSSGGGGSGGGGSGGGGSELVMTQSPASLSASVGETVTITCRASGNIHNYLAWYQQKQGKSPQLLVYNAKTLADGVPSRFSGSGSGTQYSLKINSLQPEDFGTYYCQHFWSTPYTFGGGTKLEIK
B2: binds [1]; binds [2]; binds [8]. B2: binds [3]; no binding [6]; no binding [7].

B3: CDH3-5 (scFv)
scFv: EVQLVEQSGAELVKPGASVKISCKASGYAFSTSWMNWVKQRPGKGLEWIGRIYPGDGETKYNGKFKGKATLTADKSSSTAYMQLSSLTSEDSAVYFCARQRDYGALYALDYWGQGTRVTVSSGGGGSGGGGSGGGGSELMMTQTPASLSASVGETVTFTCRASENIYSYLAWYQQKQGKSPQLLVYNAKTLAEGVPSRFSGSGSGTQFSLKINSLQPEDFGSYYCQHHYVPPYTFGGGTKLEIK
notes: Used as crude periplasmic extract and detected through a FLAG tag; also called CDH3-5 scFv
B3: binds [1]; binds [3]; binds [9]. B3: no binding [10].

B4: CDH3-7 (scFv)
scFv: EVQLVEQSGAELVKPGASVKISCKASGYAFSSSWMNWVKQRPGKGLEWIGRIYPGDGETKYNGKFKGKATLTADKSSSTAYMQLSTLTSEDSAVYFCARQRDYGALYAMDYWGQGTSVTVSSGGGGSGGGGSGGGGSELQMTQSPASLSASVGETVTITCRLSENIYSYLAWYRQKEGESPQLLVYNSKTLAEGVPSRFSGSGSGTQFSLKINSLQPEDFGNYYCQNHYGFPFTFGAGTKLEIK
notes: Used as crude periplasmic extract and detected through a FLAG tag; also called CDH3-7 scFv
B4: binds [11].

B5: CDH3-6 scFv (scFv)
scFv: EVQLVEESGPELVKPGASVKISCKASGYAFSSSWMNWVKQRPGKGLEWIGRIYPGDGETKYNGKFKGKATLTADKSSSTAYMQLSSLTSEDSAVYFCARQRDYGALYAMDYWGQGTSVTVSSGGGGSGGGGSGGGGSELVMTQSPASLSASVGETVTITCRASDDIYSYLAWYQQKQGKSPQLLVYNAKTLAEGVPSRFSGSGSGTQFSLKINSLQPEDFGTYYCQNHYVTPFTFGAGTKLEIK
B5: binds [1]; binds [11]; binds [3]. B5: binds [9]; no binding [10].
